Measurements from the supplement of paper PMC5998384.

Key:
HeLa Kyoto [1] = assay: solubility in G1/S (NP-40 vs SDS abundance) (log2 ratio); higher = more soluble; details: cell cycle stage: G1/S
HeLa Kyoto [2] = assay: solubility change mitosis vs G1/S (difference of NP-40 vs SDS log2 ratios) (log2 ratio difference); higher = more soluble in mitosis
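For solubility change mitosis vs G1/S (difference of NP-40 vs SDS log2 ratios) in this document: synchronized HeLa Kyoto cells (double thymidine block for G1/S, nocodazole release for mitosis), protein amounts in NP-40 versus SDS lysates quantified by mass spectrometry, three biological replicates.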
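For solubility in G1/S (NP-40 vs SDS abundance) in this document: HeLa Kyoto cells arrested at G1/S by double thymidine block, proteins quantified by TMT10plex mass spectrometry in mild NP-40 versus SDS extracts, three biological replicates.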

Substance | solubility in G1/S (log2) (HeLa Kyoto [1]) | solubility change mitosis (log2) (HeLa Kyoto [2])
MGNRGMEDLIPLVNRLQDAFSAIGQNADLDLPQIAVVGGQSAGKSSVLENFVGRDFLPRGSGIVTRRPLVLQLVNATTEYAEFLHCKGKKFTDFEEVRLEIEAETDRVTGTNKGISPVPINLRVYSPHVLNLTLVDLPGMTKVPVGDQPPDIEFQIRDMLMQFVTKENCLILAVSPANSDLANSDALKVAKEVDPQGQRTIGVITKLDLMDEGTDARDVLENKLLPLRRGYIGVVNRSQKDIDGKKDITAALAAERKFFLSHPSYRHLADRMGTPYLQKVLNQQLTNHIRDTLPGLRNKLQSQLLSIEKEVEEYKNFRPDDPARKTKALLQMVQQFAVDFEKRIEGSGDQIDTYELSGGARINRIFHERFPFELVKMEFDEKELRREISYAIKNIHGIRTGLFTPDMAFETIVKKQVKKIREPCLKCVDMVISELISTVRQCTKKLQQYPRLREEMERIVTTHIREREGRTKEQVMLLIDIELAYMNTNHEDFIGFANAQQRSNQMNKKKTSGNQDEILVIRKGWLTINNIGIMKGGSKEYWFVLTAENLSWYKDDEEKEKKYMLSVDNLKLRDVEKGFMSSKHIFALFNTEQRNVYKDYRQLELACETQEEVDSWKASFLRAGVYPERVGDKEKASETEENGSDSFMHSMDPQLERQVETIRNLVDSYMAIVNKTVRDLMPKTIMHLMINNTKEFIFSELLANLYSCGDQNTLMEESAEQAQRRDEMLRMYHALKEALSIIGDINTTTVSTPMPPPVDDSWLQVQSVPAGRRSPTSSPTPQRRAPAVPPARPGSRGPAPGPPPAGSALGGAPPVPSRPGASPDPFGPPPQVPSRPNRAPPGVPSRSGQASPSRPESPRPPFDL [DNM1] | 0.233 | -0.0969
CEP295 | 0.074 | -0.138
MYRLMSAVTARAAAPGGLASSCGRRGVHQRAGLPPLGHGWVGGLGLGLGLALGVKLAGGLRGAAPAQSPAAPDPEASPLAEPPQEQSLAPWSPQTPAPPCSRCFARAIESSRDLLHRIKDEVGAPGIVVGVSVDGKEVWSEGLGYADVENRVPCKPETVMRIASISKSLTMVALAKLWEAGKLDLDIPVQHYVPEFPEKEYEGEKVSVTTRLLISHLSGIRHYEKDIKKVKEEKAYKALKMMKENVAFEQEKEGKSNEKNDFTKFKTEQENEAKCRNSKPGKKKNDFEQGELYLREKFENSIESLRLFKNDPLFFKPGSQFLYSTFGYTLLAAIVERASGCKYLDYMQKIFHDLDMLTTVQEENEPVIYNRARFYVYNKKKRLVNTPYVDNSYKWAGGGFLSTVGDLLKFGNAMLYGYQVGLFKNSNENLLPGYLKPETMVMMWTPVPNTEMSWDKEGKYAMAWGVVERKQTYGSCRKQRHYASHTGGAVGASSVLLVLPEELDTETINNKVPPRGIIVSIICNMQSVGLNSTALKIALEFDKDRSD [LACTB] | -2.26 | 0.376
MFPVFPCTLLAPPFPVLGLDSRGVGGLMNSFPPPQGHAQNPLQVGAELQSRFFASQGCAQSPFQAAPAPPPTPQAPAAEPLQVDLLPVLAAAQESAAAAAAAAAAAAAVAAAPPAPAAASTVDTAALKQPPAPPPPPPPVSAPAAEAAPPASAATIAAAAATAVVAPTSTVAVAPVASALEKKTKSKGPYICALCAKEFKNGYNLRRHEAIHTGAKAGRVPSGAMKMPTMVPLSLLSVPQLSGAGGGGGEAGAGGGAAAVAAGGVVTTTASGKRIRKNHACEMCGKAFRDVYHLNRHKLSHSDEKPYQCPVCQQRFKRKDRMSYHVRSHDGAVHKPYNCSHCGKSFSRPDHLNSHVRQVHSTERPFKCEKCEAAFATKDRLRAHTVRHEEKVPCHVCGKMLSSAYISDHMKVHSQGPHHVCELCNKGTGEVCPMAAAAAAAAAAAAAAVAAPPTAVGSLSGAEGVPVSSQPLPSQPW [MAZ] | 0.0657 | 0.19
MLRWTRAWRLPREGLGPHGPSFARVPVAPSSSSGGRGGAEPRPLPLSYRLLDGEAALPAVVFLHGLFGSKTNFNSIAKILAQQTGRRVLTVDARNHGDSPHSPDMSYEIMSQDLQDLLPQLGLVPCVVVGHSMGGKTAMLLALQRPELVERLIAVDISPVESTGVSHFATYVAAMRAINIADELPRSRARKLADEQLSSVIQDMAVRQHLLTNLVEVDGRFVWRVNLDALTQHLDKILAFPQRQESYLGPTLFLLGGNSQFVHPSHHPEIMRLFPRAQMQTVPNAGHWIHADRPQDFIAAIRGFLV [ABHD11] | 0.492 | 0.0439
